Experimental data reported in patent publication US20170015742A1 (published 2017).

Key:
VEGF-A [1] = target: T1, VEGF-A (human, UniProt P15692 207-395); test: Biacore SPR; DVD-Ig captured on anti-human Fc, antigen injected
T1 construct: also called hVEGF165
Summary of the method: (§1)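 Antibodies or DVD-Ig molecules (1 μg/ml) were captured on an anti-human Fc CM5 surface, with antigen injected in solution and responses referenced to the capture-only surface. Rate constants came from a global 1:1 Langmuir fit, and KD = koff/kon.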

PDGF-BB [2] = target: T2, PDGF-BB (human, UniProt P01127 82-190, limits assumed); test: as above
T2 construct: also called human PDGF-BB; hPDGF-BB
Summary of the method: as §1

VEGF-A [3] = target: VEGF-A (UniProt P15692-4 27-191, limits assumed); test: SPR (Biacore), DVD-Ig captured by anti-human Fc, antigen in flow
Procedure: (§2) For example, approximately 9000 RU of goat anti-human Fc specific polyclonal antibody (Thermo Fisher Scientific Inc., Rockford, Ill.) diluted in 10 mM sodium acetate (pH 4.5) is directly immobilized across a CM5 research grade biosensor chip using a standard amine coupling kit according to manufacturer's instructions and procedures at 25 μg/ml. Unreacted moieties on the biosensor surface were blocked with ethanolamine. For kinetic analysis, rate equations derived from the 1:1 Langmuir binding model were fitted simultaneously to multiple antigen injections (using global fit analysis) with the use of Scrubber 2 (BioLogic Software), Biacore Biaevaluation 4.0.1 software or Biacore T100 Evaluation software. Purified antibodies or DVD-Ig molecules were diluted in running buffer for capture across goat anti-human Fc reaction surfaces. Antibodies or DVD-Ig molecules to be captured as a ligand (1 μg/ml) were injected over reaction matrices at a flow rate of 10 μl/minute. During the assay, all measurements were referenced against the capture surface alone (i.e., with no captured antibody or DVD-Ig molecule). […] The equilibrium dissociation constant KD (M) of the reaction between antibodies and the target antigen was then calculated from the kinetic rate constants by the following formula: KD=Koff/Kₒₙ. Binding was recorded as a function of time and kinetic rate constants were calculated.

PDGF-BB [4] = target: PDGF-BB (UniProt P01127 82-190); test: as above
Procedure: as §2

Sequence of PDGF-BB (UniProt P01127 82-190) (P01127 82-190): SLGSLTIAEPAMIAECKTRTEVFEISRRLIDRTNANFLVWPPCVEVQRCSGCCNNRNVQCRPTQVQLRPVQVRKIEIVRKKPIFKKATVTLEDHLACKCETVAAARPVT
T2 sequence (P01127 82-190 limits assumed): as the sequence (P01127 82-190) above
T1 sequence (P15692 other isoform, or with tags, fused parts or gaps limits assumed): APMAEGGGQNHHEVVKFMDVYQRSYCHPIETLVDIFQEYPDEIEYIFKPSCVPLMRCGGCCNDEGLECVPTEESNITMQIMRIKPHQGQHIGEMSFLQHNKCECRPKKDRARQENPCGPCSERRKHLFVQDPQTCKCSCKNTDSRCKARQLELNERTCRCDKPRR
Sequence of VEGF-A (UniProt P15692-4 27-191, limits assumed) (P15692 other isoform, or with tags, fused parts or gaps limits assumed): as above

Binder | Kd (VEGF-A [1]) | kon (VEGF-A [1]) | Kd (PDGF-BB [2]) | kon (PDGF-BB [2]) | Kd (VEGF-A [3]) | kon (VEGF-A [3]) | Kd (PDGF-BB [4]) | kon (PDGF-BB [4])
9E8.4-GS-4G8.3 (PR-1563988) (bispecific antibody, human IgG1, kappa, L234A L235A, DVD-Ig; outer hBDI-9E8.4 (PDGF), linkers GS-H10/GS-L10, inner hBDB-4G8.3 (VEGF); human IgG1 L234A, L235A / kappa) heavy: not shown light: EFVLTQSPGTLSLSPGERATLSCERSSGDIGDSYVSWYQQKPGQAPRLVIYADDQRPSGIPDRFSGSGSGTDFTLTISRLEPEDFAVYYCQSYDINIDIVFGGGTKVEIKGGGSGGGGSGDTVLTQSPATLSLSPGERATLSCRASESVSTHMHWYQQKPGQAPRLLIYGASNLESGVPARFSGSGSGTDFTLTISSLEPEDFAVYFCQQSWNDPFTFGQGTKLEIKRTVAAPSVFIFPPSDEQLKSGTASVVCLLNNFYPREAKVQWKVDNALQSGNSQESVTEQDSKDSTYSLSSTLTLSKADYEKHKVYACEVTHQGLSSPVTKSFNRGEC | – | – | – | – | 0.29 nM | 220000 M⁻¹ s⁻¹ | 0.02 nM | 1e+07 M⁻¹ s⁻¹
9E8.4-SL-4G8.3 (PR-1563998) (bispecific antibody, human IgG1, kappa, L234A L235A, DVD-Ig; outer hBDI-9E8.4 (PDGF), linkers HG-short/LK-long, inner hBDB-4G8.3 (VEGF); human IgG1 L234A, L235A / kappa) heavy: not shown light: EFVLTQSPGTLSLSPGERATLSCERSSGDIGDSYVSWYQQKPGQAPRLVIYADDQRPSGIPDRFSGSGSGTDFTLTISRLEPEDFAVYYCQSYDINIDIVFGGGTKVEIKGTVAAPSVFIFPPDTVLTQSPATLSLSPGERATLSCRASESVSTHMHWYQQKPGQAPRLLIYGASNLESGVPARFSGSGSGTDFTLTISSLEPEDFAVYFCQQSWNDPFTFGQGTKLEIKRTVAAPSVFIFPPSDEQLKSGTASVVCLLNNFYPREAKVQWKVDNALQSGNSQESVTEQDSKDSTYSLSSTLTLSKADYEKHKVYACEVTHQGLSSPVTKSFNRGEC | – | – | – | – | 0.12 nM | 700000 M⁻¹ s⁻¹ | 0.019 nM | 1e+07 M⁻¹ s⁻¹

The remaining lines, values ahead:

Kd (VEGF-A [1]) | kon (VEGF-A [1]) | Kd (PDGF-BB [2]) | kon (PDGF-BB [2]) | Kd (VEGF-A [3]) | kon (VEGF-A [3]) | Kd (PDGF-BB [4]) | kon (PDGF-BB [4]) | Binder
0.0014 nM | 1.2e+07 M⁻¹ s⁻¹ | 0.012 nM | 4.5e+07 M⁻¹ s⁻¹ | – | – | – | – | CL-34565_GS_3E2.1 (PR-1613185) (bispecific antibody, human IgG1, kappa, L234A L235A, DVD-Ig: outer CL-34565 (VEGF), inner hBFU-3E2.1 (PDGF), linkers GS-H10/GS-L10(dR); Human IgG1 L234A, L235A, H435A with kappa) heavy: EVQLVQSGSELKKPGASVKVSCKASGYTFTDYGMYWVRQAPGQGLEWMGWIDTETGDPTYADDFKGRFVFSLDTSVSTAYLQISSLKAEDTAVYYCARTNYYYRNYMFYFDYWGQGTMVTVSSGGGGSGGGGSEVQLVQSGAEVKKPGSSVKVSCKASGYTFTESYMYWVKQAPGQGLELIGRIDPEDGSTDYVEKFKNKATLTADKSTSTAYMELSSLRSEDTAVYFCARFGARSYFYPMDAWGQGTTVTVSSASTKGPSVFPLAPSSKSTSGGTAALGCLVKDYFPEPVTVSWNSGALTSGVHTFPAVLQSSGLYSLSSVVTVPSSSLGTQTYICNVNHKPSNTKVDKKVEPKSCDKTHTCPPCPAPEAAGGPSVFLFPPKPKDTLMISRTPEVTCVVVDVSHEDPEVKFNWYVDGVEVHNAKTKPREEQYNSTYRVVSVLTVLHQDWLNGKEYKCKVSNKALPAPIEKTISKAKGQPREPQVYTLPPSREEMTKNQVSLTCLVKGFYPSDIAVEWESNGQPENNYKTTPPVLDSDGSFFLYSKLTVDKSRWQQGNVFSCSVMHEALHNAYTQKSLSLSPGK light: EIVLTQSPATLSLSPGERATLFCRASQSVSNHMHWYQQKPGQAPRLLIYGASILESGVPARFSGSGSGTDFTLTISSLEPEDFAVYYCQQSWYDPITFGQGTKLEIKGGSGGGGSGGETVLTQSPATLSLSPGERATLSCRASESVSTLMHWYQQKPGQQPRLLIYGASNLESGVPARFSGSGSGTDFTLTISSLEPEDFAVYFCQQSWNDPWTFGGGTKVEIKRTVAAPSVFIFPPSDEQLKSGTASVVCLLNNFYPREAKVQWKVDNALQSGNSQESVTEQDSKDSTYSLSSTLTLSKADYEKHKVYACEVTHQGLSSPVTKSFNRGEC
0.0087 nM | 4.8e+06 M⁻¹ s⁻¹ | 0.013 nM | 4.1e+07 M⁻¹ s⁻¹ | – | – | – | – | 4G8.5_GS_3E2.1 (PR-1610560) (bispecific antibody, human IgG1, kappa, L234A L235A, DVD-Ig: outer hBDB-4G8.5 (VEGF), inner hBFU-3E2.1 (PDGF), linkers GS-H10/GS-L10(dR); Human IgG1 L234A, L235A, H435A with kappa) heavy: EIQLVQSGSELKKPGASVKVSCKASGYTFTNYGMYWVRQAPGQGLEYMGWINTETGKPTYADDFKGRFVFSLDTSVSTAYLQISSLKAEDTAVYFCARTNYYYRSYIFYFDYWGQGTMVTVSSGGGGSGGGGSEVQLVQSGAEVKKPGSSVKVSCKASGYTFTESYMYWVKQAPGQGLELIGRIDPEDGSTDYVEKFKNKATLTADKSTSTAYMELSSLRSEDTAVYFCARFGARSYFYPMDAWGQGTTVTVSSASTKGPSVFPLAPSSKSTSGGTAALGCLVKDYFPEPVTVSWNSGALTSGVHTFPAVLQSSGLYSLSSVVTVPSSSLGTQTYICNVNHKPSNTKVDKKVEPKSCDKTHTCPPCPAPEAAGGPSVFLFPPKPKDTLMISRTPEVTCVVVDVSHEDPEVKFNWYVDGVEVHNAKTKPREEQYNSTYRVVSVLTVLHQDWLNGKEYKCKVSNKALPAPIEKTISKAKGQPREPQVYTLPPSREEMTKNQVSLTCLVKGFYPSDIAVEWESNGQPENNYKTTPPVLDSDGSFFLYSKLTVDKSRWQQGNVFSCSVMHEALHNAYTQKSLSLSPGK light: ATQLTQSPSLSASVGDRVTITCRASESVSTHMHWYQQKPGKQPKLLIYGASNLESGVPSRFSGSGSGTDFTLTISSLQPEDFATYFCQQSWNDPFTFGQGTKLEIKGGSGGGGSGGETVLTQSPATLSLSPGERATLSCRASESVSTLMHWYQQKPGQQPRLLIYGASNLESGVPARFSGSGSGTDFTLTISSLEPEDFAVYFCQQSWNDPWTFGGGTKVEIKRTVAAPSVFIFPPSDEQLKSGTASVVCLLNNFYPREAKVQWKVDNALQSGNSQESVTEQDSKDSTYSLSSTLTLSKADYEKHKVYACEVTHQGLSSPVTKSFNRGEC
